{"source": "paper PMC8597880", "experiment_in_all_cases": "BLI", "key": {"[1]": {"target": "recombinant SARS-CoV-2 RBD B.1.1.7/N501Y (SARS-CoV-2, Alpha (B.1.1.7) RBD with N501Y)"}, "[2]": {"target": "recombinant SARS-CoV-2 RBD B.1.351/K417N, E484K, N501Y (SARS-CoV-2, B.1.351 (Beta), RBD K417N, E484K, N501Y)"}, "[3]": {"target": "recombinant SARS-CoV-2 RBD B.1.617.2/L452R, T478K (SARS-CoV-2, B.1.617.2 (Delta), RBD L452R, T478K)"}, "[4]": {"target": "recombinant SARS-CoV-2 RBD P.1/K417T, E484K, N501Y (SARS-CoV-2, P.1 (Gamma), RBD K417T, E484K, N501Y)"}}, "data": [{"substance": "NIH-CoVnb-112 (VHH)", "values": [{"measurement": "Kd", "setting": "[1]", "result": 3, "unit": "nM"}, {"measurement": "Kd", "setting": "[2]", "result": 4.28, "unit": "nM"}, {"measurement": "Kd", "setting": "[3]", "result": 1.66, "unit": "nM"}, {"measurement": "Kd", "setting": "[4]", "result": 4.16, "unit": "nM"}]}]}
